According to patent US20050260565A1 (ICOS, published 2005):

T1: FLAG-tagged 88C receptor (human, UniProt P51681 1-352)
T1 sequence: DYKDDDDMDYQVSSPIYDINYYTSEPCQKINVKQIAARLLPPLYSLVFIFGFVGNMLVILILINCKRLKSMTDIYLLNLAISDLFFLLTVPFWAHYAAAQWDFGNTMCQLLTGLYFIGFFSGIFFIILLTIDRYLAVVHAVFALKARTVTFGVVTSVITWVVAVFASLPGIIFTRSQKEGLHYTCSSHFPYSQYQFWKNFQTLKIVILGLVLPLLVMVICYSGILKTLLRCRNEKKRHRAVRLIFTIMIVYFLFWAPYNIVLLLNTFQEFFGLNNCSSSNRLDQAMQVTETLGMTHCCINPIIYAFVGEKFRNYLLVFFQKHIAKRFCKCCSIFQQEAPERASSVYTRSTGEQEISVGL


Tests used:
FLAG-tagged 88C receptor [1] = biological target: T1, FLAG-tagged 88C receptor; test: competition of the unlabeled ligand with 1.5 nM 125I-MIP-1β on HEK-293 cells expressing FLAG-tagged 88C
Text: (§1) Another assay for receptor interaction with chemokines was a modification of the binding assay described by Ernst et al., J. Immunol. 152:3541-3549 (1994). MIP-1β as labeled using the Bolton and Hunter reagent (di-iodide, NEN, Wilmington, Del.), according to the manufacturer's instructions. Unconjugated iodide was separated from labeled protein by elution using a PD-10 column (Pharmacia) equilibrated with PBS and BSA (1% w/v). The specific activity was typically 2200 Ci/mmole. Equilibrium binding was performed by adding ¹²⁵I-labeled ligand with or without a 100-fold excess of unlabeled ligand, to 5×10⁵ HEK-293 cells transfected with 88C tagged with the FLAG epitope in polypropylene tubes in a total volume of 300 μl (50 mM HEPES pH 7.4, 1 mM CaCl₂, MgCl₂, 0.5% BSA) and incubating for 90 minutes at 27° C. with shaking at 150 rpm. The cells were collected, using a Skatron cell harvester (Skatron Instruments Inc., Sterling, Va.), on glass fiber filters presoaked in 0.3% polyethyleneimine and 0.2% BSA. After washing, the filters were removed and bound ligand was quantitated by counting gamma emissions. Ligand binding by competition with unlabeled ligand was determined by incubation of 5×10⁵ transfected cells (as above) with 1.5 nM of radiolabeled ligand and the indicated concentrations of unlabeled ligand. The samples were collected, washed and counted as above. The data was analyzed using the curve-fitting program Prism (GraphPad Inc., San Diego, Calif.) and the iterative non-linear regression program, LIGAND (PM220).
In equilibrium binding assays, 88C receptor bound radiolabeled MIP-1β in a specific and saturable manner.

FLAG-tagged 88C receptor [2] = biological target: T1, FLAG-tagged 88C receptor; test: cell-based or functional assay
FLAG-tagged 88C receptor [3] = biological target: T1, FLAG-tagged 88C receptor; test: equilibrium binding of 125I-MIP-1β to HEK-293 cells expressing FLAG-tagged 88C, Scatchard analysis
Text: as §1, with “The cells were collected, using a Skatron cell harvester (Skatron Instruments Inc., Sterling, Va.), on glass fiber filters presoaked in 0.3% polyethyleneimine and 0.2% BSA.” left out, “(PM220). […]” for “(PM220).”

IC50 (FLAG-tagged 88C receptor [1])	EC50 of inositol phosphate formation (dose-response curves) (FLAG-tagged 88C receptor [2])	Kd (FLAG-tagged 88C receptor [3])	Binder
6.9 nM	1 nM		RANTES (Regulated on Activation, Normal T Expressed and Secreted) (ligand, UniProt P13501 24-91, looked up) SPYSSDTTPCCFAYIARPLPRAHIKEYFYTSGKCSNPAVVFVTRKNRQVCANPEKKWVREYINSLEMS
7.4 nM	22 nM		MIP-1α (ligand, UniProt P10147 24-92, looked up) SLAADTPTACCFSYTSRQIPQNFIADYFETSSQCSKPGVIFLTKRSRQVCADPSEEWVQKYVSDLELSA
7.4 nM	6 nM	1.6 nM	MIP-1β (ligand, UniProt P13236 24-92, looked up, ends and bridges not checked; also: 125I label (Bolton and Hunter reagent) where used as radiolabeled ligand) APMGSDPPTACCFSYTARKLPRNFVVDYYETSSLCSQPAVVFQTKRSKQVCADPSESWVQEYVYDLELN
